Tested on: mCherry-GFP^Y39TAG amber suppression reporter
Test: Amber suppression in baculovirus-transduced Sf21 insect cells, flow cytometry
Type: cell-based, Spodoptera frugiperda
Experimental: Following standard protocols, insect cells of line Sf21 were cultured in a protein-free, serum-free standard culture medium for Spodoptera frugiperda cells (Sf-900™ III SFM) at 27° C. shaking at 180 rpm. The Sf21 cells were split every day to a density of 0.6×10^6 cells/ml or every third day to a density of 0.3×10^6 cells/ml.
Baculovirus shuttle vector (Bacmid) DNA containing an expression cassette encoding tRNA^Pyl, mCherry-GFP^Y39TAG and either PylRS^AF or NES-PylRS^AF was prepared using standard cloning and recombination procedures.
For transfection 3 ml/well of 0.3×10^6 Sf21 cells/ml were seeded in a 6-well cell culture multidish (Nunclon Delta Surface, Thermo scientific) and transfected with Bacmid DNA using a nonliposomal transfection reagent (FuGENE®HD Transfection Reagent, Promega) following the manufacturer's instructions. V0-virus was harvested 70 h post transfection and the V1-generation was started. Therefor, 25 ml Sf21 cells at 0.6×10^6 cells/ml were transfected with 3 ml of the Vo-virus. After cell proliferation stopped, the cultures were kept for another 48-60 h at 27° C. shaking at 180 rpm. The transfected cells were harvested by centrifugation (500 rpm, 10 min) and the supernatant (i.e., the V1-Virus) was stored at 4° C.
5-25 ml Sf21 cells at 0.6×10^6 cells/ml were transduced with V1-virus prepared by method (I) at a ratio of 100:1 vol/vol (cells:virus). One day afterwards, different amounts of UAA 1 (0-1 mM final concentration) was added to the cultures. After three days of culture, the cells were harvested by centrifugation (500 rpm, 10 min), cooled down to 4° C., resuspended in 2 ml sterile 1×PBS, filtered through a cell strainer (Falcon, 70 μm, Fisher Scientific) and kept on ice until analysis. Data for 500,000 cells of each sample was acquired and analyzed using a LSRFortessa SORP Cell Analyzer (Becton, Dickinson and Company) and the FlowJo software (FlowJo Enterprise). Cells were gated first by cell type (using FSC-A×SSC-A parameters) and then by single cell (FSC-A×SSC-W). GFP fluorescence was acquired in the 488-530/30 channel and mCherry fluorescence in the 561-610/20 channel.
Sf21 cells were transduced with Bacmid DNA encoding tRNA^Pyl, mCherry-GFP^Y39TAG, and either PylRS^AF or NES-PylRS^AF, cultured with different concentrations (0, 10, 50, 100, 250, 500 or 1000 μM) of UAA 1 (BOC) and analyzed using methods (I) and (J) described herein.
mCherry fluorescence of the cells indicated successful transduction with Bacmid DNA. GFP fluorescence of the cells indicated successful suppression of the amber stop codon encoding amino acid position 39 of the GFP^Y39TAG reporter gene by incorporation of UAA 1 at said position.

B1: PylRS^AF: mutant M. mazei pyrrolysyl tRNA synthetase comprising amino acid substitutions Y306A and Y384F, SEQ ID NO:2 (protein)
chain: MDKKPLNTLISATGLWMSRTGTIHKIKHHEVSRSKIYIEMACGDHLVVNNSRSSRTARALRHHKYRKTCKRCRVSDEDLNKFLTKANEDQTSVKVKVVSAPTRTKKAMPKSVARAPKPLENTEAAQAQPSGSKFSPAIPVSTQESVSVPASVSTSISSISTGATASALVKGNTNPITSMSAPVQASAPALTKSQTDRLEVLLNPKDEISLNSGKPFRELESELLSRRKKDLQQIYAEERENYLGKLEREITRFFVDRGFLEIKSPILIPLEYIERMGIDNDTELSKQIFRVDKNFCLRPMLAPNLANYLRKLDRALPDPIKIFEIGPCYRKESDGKEHLEEFTMLNFCQMGSGCTRENLESIITDFLNHLGIDFKIVGDSCMVFGDTLDVMHGDLELSSAVVGPIPLDREWGIDKPWIGAGFGLERLLKVKHDFKNIKRAARSESYYNGISTNL
modifications: Methanosarcina mazei PylRS Y306A, Y384F mutant; MUTAGEN 306 Y306A mutation; MUTAGEN 384 Y384F mutation
Sf21, UAA 1 conc. 0 μM
  Cells showing both mCherry and GFP fluorescence: 1.4%
  Cells showing only mCherry fluorescence: 94.6%
Sf21, UAA 1 conc. 10 μM
  Cells showing both mCherry and GFP fluorescence: 20.1%
  Cells showing only mCherry fluorescence: 75.8%
Sf21, UAA 1 conc. 50 μM
  Cells showing both mCherry and GFP fluorescence: 56.2%
  Cells showing only mCherry fluorescence: 39.3%
Sf21, UAA 1 conc. 100 μM
  Cells showing both mCherry and GFP fluorescence: 67.1%
  Cells showing only mCherry fluorescence: 25.9%
Sf21, UAA 1 conc. 250 μM
  Cells showing both mCherry and GFP fluorescence: 76.5%
  Cells showing only mCherry fluorescence: 13.9%
Sf21, UAA 1 conc. 500 μM
  Cells showing both mCherry and GFP fluorescence: 81.6%
  Cells showing only mCherry fluorescence: 9.1%
Sf21, UAA 1 conc. 1000 μM
  Cells showing both mCherry and GFP fluorescence: 85.8%
  Cells showing only mCherry fluorescence: 5.7%

From patent US12723243B2, “Archaeal pyrrolysyl tRNA synthetases for orthogonal use” (European Molecular Biology Laboratory, priority 2016, dated 2026)
